This is an account of results in patent US20190134143A1 (BIOCELLS BEIJING BIOTECH, published 2019).

The target in the assay is T1, PDZ1/2 domain.
T1 construct: domain: PDZ1/2; also called PDZ1/2 protein
The assay is described as follows: SPR, Biacore 3000; PDZ1/2 amine-coupled to the chip, peptide as analyte, 1:1 binding model.

T1 sequence (P78352 65-246): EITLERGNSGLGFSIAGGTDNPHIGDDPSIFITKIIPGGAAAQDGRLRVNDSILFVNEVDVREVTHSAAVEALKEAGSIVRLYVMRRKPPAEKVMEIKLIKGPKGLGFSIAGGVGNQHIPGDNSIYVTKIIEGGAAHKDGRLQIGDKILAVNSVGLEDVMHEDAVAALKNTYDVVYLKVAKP
Procedure: The immobile phase molecule (ligand) was PDZ1/2 protein with a molecular weight of approximately 20 kD at a concentration of 2 mg/ml. The mobile phase molecule (analyte) was a polypeptide to be screened with a molecular weight of approximately 2 kD at a concentration of 10 mg/ml. The CMS chip was used for fixation using a Biacore 3000 instrument. The electrophoresis buffer was PBS plus 0.005% Tween 20. Fixation was carried out using an amino coupling method. The concentration of the ligand was 10 μg/ml. The fixation buffer was 10 mM sodium acetate, pH 4.0. Fixed amount was 1400 RU, which was fixed to flow cell 2. The used flow rate was 10 μl/ml and the ligand was loaded for 1 minute. 10 mM Gly at pH 2.0+2.5 was used as a regenerant. Regeneration was carried out at a flow rate of 30 μl/min. The loading time was 30 s.

B1: chimeric peptide YE-NA-1 (peptide)
peptide: YGRKKRRQRRRYEKLSSIESDV
By Kd is commonly meant a measure of binding affinity in units of concentration. Low readings indicate higher affinity, high ones lower affinity. As to B1, the affinity, expressed as Kd, was 54.4 nM.
